Patent US20240052034A1 (PANDION OPERATIONS, published 2024)
Substitutions are numbered along the chain they refer to. Where “and” joins values, the source holds several entries; their conditions need not be identical. Identical values can stand only once.

T1: Fc-tagged mouse PD-1 (mouse, UniProt Q02242 25-167, limits assumed)
T1 construct: Printed 'Fe-tagged', read as Fc-tagged; also called Fe-tagged mouse PD-1 (so in the source); not shown: Fc tag
T1 sequence (looked up): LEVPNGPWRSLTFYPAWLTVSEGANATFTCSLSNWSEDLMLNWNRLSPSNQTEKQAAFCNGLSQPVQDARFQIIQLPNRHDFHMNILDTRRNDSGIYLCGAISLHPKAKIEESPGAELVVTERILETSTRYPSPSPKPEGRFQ

T2: mouse PD-1 (mouse, UniProt Q02242 25-167, limits assumed)
T2 sequence (looked up): T1 sequence (looked up)

B1: Fab moiety of the PD1AB53 (Fab, V domains shown)
VH: EVQLLESGGGLVQPGGSLRLSCAASGFTFSSYDMSWVRQAPGKGLEWVSGITISGGSTYYADSVKGRFTISRDNSKNTLYLQMNSLRAEDTAVYYCARGRGGSGWLDYWGQGTTVTVSS
VL: not shown
notes: also called PD1AB53 Fab
B2: scFv moiety of the PD1AB37 (scFv)
scFv: EVQLLESGGGLVQPGGSLRLSCAASGFTFSSYDMSWVRQAPGKGLEWVSGITISGGSTYYADSVKGRFTISRDNSKNTLYLQMNSLRAEDTAVYYCARGRGGSGWLDYWGQGTTVTVSSGGGGSGGGGSGGGGSGGGGSDIVMTQSPDSLAVSLGERATINCKSSQSVLYSPNNKNYLAWYQQKPGQPPKLLIYWASTRESGVPDRFSGSGSGTDFTLTISSLQAEDVAVYYCQQYYTTPPTFGQGTRLEIK
notes: also called PD1AB37 scFv
B3: scFv moiety of the PD1AB38 (scFv)
scFv: B2 scFv
notes: also called PD1AB38 scFv
B4: PD1AB53 (bispecific antibody, human IgG1, kappa)
heavy: EVQLLESGGGLVQPGGSLRLSCAASGFTFSSYDMSWVRQAPGKGLEWVSGITISGGSTYYADSVKGRFTISRDNSKNTLYLQMNSLRAEDTAVYYCARGRGGSGWLDYWGQGTTVTVSSASTKGPSVFPLAPSSKSTSGGTAALGCLVKDYFPEPVTVSWNSGALTSGVHTFPAVLQSSGLYSLSSVVTVPSSSLGTQTYICNVNHKPSNTKVDKKVEPKSCDKTHTCPPCPAPEAAGAPSVFLFPPKPKDTLMISRTPEVTCVVVDVSHEDPEVKFNWYVDGVEVHNAKTKPREEQYNSTYRVVSVLTVLHQDWLNGKEYKCKVSNKALPAPIEKTISKAKGQPREPQVYTLPPSREEMTKNQVSLTCLVKGFYPSDIAVEWESNGQPENNYKTTPPVLDSDGSFFLYSKLTVDKSRWQQGNVFSCSVMHEALHNHYTQKSLSLSPGGGGSEGGGSEGGGSEDIQMTQSPSSLSASVGDRVTITCQASRDIKNYLAWYQQKPGKAPKLLIYAASSLQSGVPSRFSGSGSGTDFTLTISSLQPEDFATYYCQQSYSTPPTFGCGTKVDIKGGGGSGGGGSGGGGSGGGGSEVQLVQSGAEVKKPGASVKVSCKASGYSFTTYYMHWVRQAPGQCLEWMGIINPSGGSTSYAQKFQGRVTMTRDTSTSTVYMELSSLRSEDTAVYYCASGWVYWGQGTLVTVSS
light: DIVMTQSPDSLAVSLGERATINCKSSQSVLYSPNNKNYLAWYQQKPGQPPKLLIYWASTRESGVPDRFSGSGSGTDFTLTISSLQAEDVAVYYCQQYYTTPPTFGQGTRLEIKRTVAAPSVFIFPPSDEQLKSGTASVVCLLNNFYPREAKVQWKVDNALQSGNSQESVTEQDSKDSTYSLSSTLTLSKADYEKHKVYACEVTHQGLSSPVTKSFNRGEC
B5: PD1AB38 (bispecific antibody, human IgG1, kappa)
heavy: EVQLVQSGAEVKKPGASVKVSCKASGYSFTTYYMHWVRQAPGQGLEWMGIINPSGGSTSYAQKFQGRVTMTRDTSTSTVYMELSSLRSEDTAVYYCASGWVYWGQGTLVTVSSASTKGPSVFPLAPSSKSTSGGTAALGCLVKDYFPEPVTVSWNSGALTSGVHTFPAVLQSSGLYSLSSVVTVPSSSLGTQTYICNVNHKPSNTKVDKKVEPKSCDKTHTCPPCPAPEAAGAPSVFLFPPKPKDTLMISRTPEVTCVVVDVSHEDPEVKFNWYVDGVEVHNAKTKPREEQYNSTYRVVSVLTVLHQDWLNGKEYKCKVSNKALPAPIEKTISKAKGQPREPQVYTLPPSREEMTKNQVSLTCLVKGFYPSDIAVEWESNGQPENNYKTTPPVLDSDGSFFLYSKLTVDKSRWQQGNVFSCSVMHEALHNHYTQKSLSLSPGGGGGSGGGGSGGGGSEVQLLESGGGLVQPGGSLRLSCAASGFTFSSYDMSWVRQAPGKGLEWVSGITISGGSTYYADSVKGRFTISRDNSKNTLYLQMNSLRAEDTAVYYCARGRGGSGWLDYWGQGTTVTVSSGGGGSGGGGSGGGGSGGGGSDIVMTQSPDSLAVSLGERATINCKSSQSVLYSPNNKNYLAWYQQKPGQPPKLLIYWASTRESGVPDRFSGSGSGTDFTLTISSLQAEDVAVYYCQQYYTTPPTFGQGTRLEIK
light: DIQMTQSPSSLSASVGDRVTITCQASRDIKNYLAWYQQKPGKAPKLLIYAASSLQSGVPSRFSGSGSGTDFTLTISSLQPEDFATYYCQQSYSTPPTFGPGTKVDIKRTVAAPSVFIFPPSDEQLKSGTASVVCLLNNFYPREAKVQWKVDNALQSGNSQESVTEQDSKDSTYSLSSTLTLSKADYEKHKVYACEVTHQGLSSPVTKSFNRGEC
B6: PD1AB37 (bispecific antibody, human IgG1, kappa)
heavy: B5 heavy with T31S
light: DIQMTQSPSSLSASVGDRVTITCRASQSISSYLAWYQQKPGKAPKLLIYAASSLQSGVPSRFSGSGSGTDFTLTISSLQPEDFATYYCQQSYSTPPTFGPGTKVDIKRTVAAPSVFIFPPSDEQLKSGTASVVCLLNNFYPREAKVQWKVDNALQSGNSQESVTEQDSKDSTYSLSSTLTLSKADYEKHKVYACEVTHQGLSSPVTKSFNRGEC
B7: PD1AB43 (bispecific antibody, human IgG1, kappa)
heavy: B5 heavy with E1Q, N52A
light: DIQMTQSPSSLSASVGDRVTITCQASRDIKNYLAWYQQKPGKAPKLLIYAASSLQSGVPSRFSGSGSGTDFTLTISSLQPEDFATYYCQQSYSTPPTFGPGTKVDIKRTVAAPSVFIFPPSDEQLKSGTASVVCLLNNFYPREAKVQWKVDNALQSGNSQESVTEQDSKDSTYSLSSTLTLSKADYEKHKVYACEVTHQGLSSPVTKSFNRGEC
B8: Fab moiety of the PD1AB37 (Fab, V domains shown)
VH: EVQLVQSGAEVKKPGASVKVSCKASGYSFTSYYMHWVRQAPGQGLEWMGIINPSGGSTSYAQKFQGRVTMTRDTSTSTVYMELSSLRSEDTAVYYCASGWVYWGQGTLVTVSS
VL: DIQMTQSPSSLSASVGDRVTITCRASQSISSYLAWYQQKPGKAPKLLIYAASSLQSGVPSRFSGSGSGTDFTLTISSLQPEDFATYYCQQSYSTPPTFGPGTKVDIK
notes: also called PD1AB37 Fab
B9: Fab moiety of the PD1AB38 (Fab, V domains shown)
VH: B8 VH with S31T
VL: DIQMTQSPSSLSASVGDRVTITCQASRDIKNYLAWYQQKPGKAPKLLIYAASSLQSGVPSRFSGSGSGTDFTLTISSLQPEDFATYYCQQSYSTPPTFGPGTKVDIK
notes: also called PD1AB38 Fab
B10: scFv moiety of the PD1AB53 (scFv)
scFv: DIQMTQSPSSLSASVGDRVTITCQASRDIKNYLAWYQQKPGKAPKLLIYAASSLQSGVPSRFSGSGSGTDFTLTISSLQPEDFATYYCQQSYSTPPTFGCGTKVDIKGGGGSGGGGSGGGGSGGGGSEVQLVQSGAEVKKPGASVKVSCKASGYSFTTYYMHWVRQAPGQCLEWMGIINPSGGSTSYAQKFQGRVTMTRDTSTSTVYMELSSLRSEDTAVYYCASGWVYWGQGTLVTVSS
notes: also called PD1AB53 scFv

Legend:
Fc-tagged mouse PD-1 = biological target: T1, Fc-tagged mouse PD-1; assay: BLI (biosensor): Fc-tagged PD-1 on anti-human IgG Fc tips, fragment in solution
Protocol: (§1) Anti-human IgG Fc (AHC) or Streptavidin (SA) biosensor were equilibrated in assay buffer for 20 minutes. Fe-tagged mouse and cynomolgus PD-1 was diluted to 5 μg/mL and biotinylated huPD-1 article was diluted to 0.5 μg/mL in assay buffer (1×PBS, 1% BSA, 0.05% Tween20). […] PD-1 was loaded on tips for 180 s followed by a 180 s association phase with PD-1 and 180 s dissociation phase in assay buffer.

[1] = biological target: T3, Fc-tagged cynomolgus PD-1 (cynomolgus, UniProt B0LAJ3 25-170); assay: as above
T3 construct: Printed 'Fe-tagged', read as Fc-tagged; also called cyno PD-1; Fe-tagged cynomolgus PD-1 (so in the source)
T3 sequence (B0LAJ3 entry or part of it limits assumed): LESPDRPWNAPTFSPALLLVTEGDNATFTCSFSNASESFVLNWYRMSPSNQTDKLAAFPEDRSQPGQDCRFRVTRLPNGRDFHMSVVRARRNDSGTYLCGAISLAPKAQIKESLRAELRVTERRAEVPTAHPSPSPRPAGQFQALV
Protocol: as §1

biotinylated huPD-1 = biological target: T4, biotinylated huPD-1 (human, UniProt Q15116 25-167, limits assumed, biotinylated (site not stated)); assay: BLI (biosensor): biotinylated huPD-1 on streptavidin tips, fragment in solution
T4 construct: also called human PD-1
T4 sequence (Q15116 25-167 limits assumed): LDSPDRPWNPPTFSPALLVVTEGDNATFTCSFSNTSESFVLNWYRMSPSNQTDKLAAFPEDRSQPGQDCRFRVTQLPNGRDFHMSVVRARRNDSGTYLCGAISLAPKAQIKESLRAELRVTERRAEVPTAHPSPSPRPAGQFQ
Protocol: as §1

[2] = biological target: PD-1 on PD-1 reporter Jurkat cells (UniProt Q15116 25-288, limits assumed); assay: cell-based or functional assay
PD-1 on PD-1 reporter Jurkat cells, sequence (Q15116 25-288 limits assumed): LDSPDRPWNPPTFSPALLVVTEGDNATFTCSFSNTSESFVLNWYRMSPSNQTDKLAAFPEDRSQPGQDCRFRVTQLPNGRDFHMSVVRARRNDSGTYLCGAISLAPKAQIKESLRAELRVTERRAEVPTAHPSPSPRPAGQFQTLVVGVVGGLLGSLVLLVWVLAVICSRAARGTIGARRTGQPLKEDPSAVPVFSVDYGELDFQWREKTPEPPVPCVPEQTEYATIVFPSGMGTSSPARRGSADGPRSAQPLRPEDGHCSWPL

human PD-1 = biological target: T5, human PD-1 (human, UniProt Q15116 25-167, limits assumed); assay: BLI (biosensor): test article on anti-human IgG Fc tips, PD-1 in solution
T5 construct: also called huPD-1
T5 sequence (Q15116 25-167 limits assumed): as the sequence (Q15116 25-167 limits assumed) above
Protocol: (§2) Anti-human IgG Fc (AHC) biosensors were equilibrated in assay buffer for 20 minutes. Test articles were diluted to 10 μg/mL in assay buffer (lx PBS, 1% BSA, 0.05% Tween20). A seven-point serial dilution of human PD-1 was prepared in assay buffer, starting at 1000 nM down to 15.625 nM (human PD-1) or 2000 nM down to 31.25 nM (mouse PD-1). Test articles were loaded on tips for 180 s followed by a 180 s association phase with PD-1 and 180 s dissociation phase in assay buffer.
as §2, with “article was” for “articles were”, “(human and cyno” for “(human”

mouse PD-1 = biological target: T2, mouse PD-1; assay: as above
Protocol: as §2
as §2, with “article was” for “articles were”, “(human and cyno” for “(human”

cynomolgus PD-1 = biological target: T6, cynomolgus PD-1 (cynomolgus, UniProt B0LAJ3 25-170); assay: as above
T6 construct: also called cyno PD-1
T6 sequence (B0LAJ3 entry or part of it limits assumed): as the sequence (B0LAJ3 entry or part of it limits assumed) above
Protocol: as §2
as §2, with “article was” for “articles were”, “(human and cyno” for “(human”

Binder | binding result (Fc-tagged mouse PD-1) | Kd [1] [nM] | Kd (biotinylated huPD-1) [nM] | EC50 of SHP-2 recruitment, PD-1 reporter Jurkat cells, Ig-tethered test article on anti-human IgG coated plates [2] [nM] | EC50 of SHP-2 recruitment, PD-1 reporter Jurkat cells, soluble test article [2] [nM] | koff (mouse PD-1) | kon (mouse PD-1) | Kd (mouse PD-1) [nM] | Kd (Fc-tagged mouse PD-1) [nM] | further results
B1 | no binding (tested: PD1AB53 Fab: dilution series from 500 nM) | 30.3 | 32.6 | – | – | – | – | – | – | –
B2 | no binding | 58.6 | 89.9 | – | – | – | – | – | – | –
B3 | no binding | 58.6 | – | – | – | – | – | – | – | –
B4 | – | – | – | 4.83 | 1.21 | 0.0228 s⁻¹ and 0.0657 s⁻¹ | 5940 M⁻¹ s⁻¹ and 2670 M⁻¹ s⁻¹ | – | – | kon (human PD-1): 67600 M⁻¹ s⁻¹ and 41300 M⁻¹ s⁻¹; response (human PD-1): 0.227; response (mouse PD-1): 0.0367; Kd (cynomolgus PD-1): 13.5 nM; koff (cynomolgus PD-1): 0.000531 s⁻¹; kon (cynomolgus PD-1): 39400 M⁻¹ s⁻¹
B5 | – | – | – | 20.9 | 0.302 | 0.0229 s⁻¹ | 23400 M⁻¹ s⁻¹ | 979 | – | –
B6 | – | – | – | 24.5 | 0.37 | 0.0245 s⁻¹ | 5050 M⁻¹ s⁻¹ | 4860 | – | Kd (human PD-1): 18.3 nM; koff (human PD-1): 0.000824 s⁻¹; kon (human PD-1): 45000 M⁻¹ s⁻¹; Kd (cynomolgus PD-1): 15.4 nM; koff (cynomolgus PD-1): 0.000566 s⁻¹; kon (cynomolgus PD-1): 36800 M⁻¹ s⁻¹
B7 | – | – | – | 8.51 | 0.574 | 0.0404 s⁻¹ | 28200 M⁻¹ s⁻¹ | 1430 | – | response (mouse PD-1): 0.0546
B8 | – | 497 | 330 | – | – | – | – | – | 1350 | –
B9 | – | 172 | 140 | – | – | – | – | – | 176 | –
B10 | – | 1170 | 1350 | – | – | – | – | – | 1060 | –
